Assay [1] has as its target SARS-CoV-2 Delta株 S-ECD蛋白 (SARS-CoV-2 Delta株 (B.1.617.2)).
Assay [2] addresses SARS-CoV-2 Gamma株 S-ECD蛋白 (SARS-CoV-2 Gamma株 (P.1)).
Assay [3] concerns the target SARS-CoV-2 Omicron株 S-ECD蛋白 (SARS-CoV-2 Omicron株 (B.1.1.529)).
Assay [4] deals with SARS-CoV-2 Alpha株 S-ECD蛋白 (SARS-CoV-2 Alpha株 (B.1.1.7)).
For assay [5], the target named is SARS-CoV-2 Beta株 S-ECD蛋白 (SARS-CoV-2 Beta株 (B.1.351)).

B1: 抗SARS-CoV-2全人源单克隆抗体ZW2G10 (antibody, V domains shown)
VH: EVQLVESGGGLVQPGRSLRLSCAASGFTFDDYAMHWVRQAPGKGLEWVSGITWNSGTIGYADSVKGRFIISRDNAKNSLHLQMNSLRVEDTALYYCAKDNSDYSGYYWELENYGMDVWGQGTTVTVSS
VL: QSVLTQPPSVSGAPGQRVTISCTGSSSNIGAGYDVHWYQQLPGTAPKLLIYDNNNRPSGVPDRFSGSKSGTSASLAITGLQAEDEADYYCQSFDSSLSGVVFGGGTRLTVLR
Usually Kd stands for the constant that tells how readily two partners part at equilibrium. A high value points to a looser complex. As for B1, the Kd was determined as 5.45 nM in assay [1]; 0.615 nM in assay [2]; 0.765 nM in assay [3]; 0.166 nM in assay [4]; 0.518 nM in assay [5].

The record behind these values is patent publication CN114031685A.
